Here are results for 1 molecule from patent US20250276015A1 (US Dept. of Health and Human Services, published 2025).

Data set [1] deals with T1, purified recombinant HERV-K Env protein (human endogenous retrovirus-K (HERV-K)).
T1 chain: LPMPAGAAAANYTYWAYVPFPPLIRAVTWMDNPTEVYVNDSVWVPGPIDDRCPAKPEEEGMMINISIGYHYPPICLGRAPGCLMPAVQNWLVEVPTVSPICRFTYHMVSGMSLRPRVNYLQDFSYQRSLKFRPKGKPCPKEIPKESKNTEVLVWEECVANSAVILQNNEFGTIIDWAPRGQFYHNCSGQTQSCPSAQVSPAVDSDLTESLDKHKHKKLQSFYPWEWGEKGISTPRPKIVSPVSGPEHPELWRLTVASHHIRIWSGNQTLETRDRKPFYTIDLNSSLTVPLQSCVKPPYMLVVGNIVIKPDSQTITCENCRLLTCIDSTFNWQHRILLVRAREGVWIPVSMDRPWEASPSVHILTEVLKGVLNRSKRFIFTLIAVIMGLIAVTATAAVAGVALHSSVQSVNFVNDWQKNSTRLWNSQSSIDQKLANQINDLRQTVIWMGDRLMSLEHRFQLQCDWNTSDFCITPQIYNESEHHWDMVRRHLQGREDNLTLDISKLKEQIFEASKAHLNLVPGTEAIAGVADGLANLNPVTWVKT
Put plainly: protein thermal shift assay (DSF); HERV-K Env with 1-3 nM G10.

Data set [2] concerns the target HERV-K Env-green fluorescent protein (GFP) fusion protein in transfected HEK293T cells (human endogenous retrovirus-K (HERV-K)). Put plainly: flow cytometry on fixed HEK293T cells transfected with Env-GFP; G10, anti-Myc antibody, Alexa Fluor 647 secondary antibody.

B1: HERV-K Env nanobody G10 (VHH)
VHH: EVQLQASGGGFVQPGGSLRLSCAASGSTWYLDAMGWFRQAPGKEREFVSAISDLDDTARYYADSVKGRFTISRDNSKNTVYLQMNSLRAEDTATYYCAYLGATMAETYWGQGTQVTVSS
notes: Recombinant protein made in E. coli; From Hybrigenics antibody phage display; also called nanobody clone G10; G10 nanobody
B1: the “shift in Tm” value in data set [1] is around 2.5 ° C. In data set [2], the % of cells in the DP quadrant (GFP and Alexa Fluor 647) turned out to be 39.4%.
